In test [1] the target is MBP-LRRK2-Roc-COR (wild type) (human) (UniProt Q5S007). The experiment in a line: MST; NT-647-NHS labelled MBP-LRRK2-Roc-COR at 100 nM; unlabelled GST, GST-CRIB-PAK5 or GST-CRIB-PAK6 titrated; guanine nucleotides at 0.5 mM; Monolith NT.115, IR laser power 80%; analysed by PALMIST.
The target in test [2] is PAK6 (Homo sapiens) (UniProt Q9NQU5). The conditions noted are these: cited from earlier work.
The target of test [3] is 3xFlag tagged PAK6, full-length, purified from HEK293 cells (human) (UniProt Q9NQU5). Briefly: MST; NT-647-NHS labelled PAK6 full-length at 100 nM; unlabelled MBP-LRRK2-Roc-COR titrated (R1441C 3.4 nM to 110 µM, Y1699C 3.6 nM to 118 µM); guanine nucleotides at 0.5 mM; Monolith NT.115, IR laser power 80%; analysed by PALMIST.
Sequence of 3xFlag tagged PAK6, full-length, purified from HEK293 cells (human) (Q9NQU5 whole entry): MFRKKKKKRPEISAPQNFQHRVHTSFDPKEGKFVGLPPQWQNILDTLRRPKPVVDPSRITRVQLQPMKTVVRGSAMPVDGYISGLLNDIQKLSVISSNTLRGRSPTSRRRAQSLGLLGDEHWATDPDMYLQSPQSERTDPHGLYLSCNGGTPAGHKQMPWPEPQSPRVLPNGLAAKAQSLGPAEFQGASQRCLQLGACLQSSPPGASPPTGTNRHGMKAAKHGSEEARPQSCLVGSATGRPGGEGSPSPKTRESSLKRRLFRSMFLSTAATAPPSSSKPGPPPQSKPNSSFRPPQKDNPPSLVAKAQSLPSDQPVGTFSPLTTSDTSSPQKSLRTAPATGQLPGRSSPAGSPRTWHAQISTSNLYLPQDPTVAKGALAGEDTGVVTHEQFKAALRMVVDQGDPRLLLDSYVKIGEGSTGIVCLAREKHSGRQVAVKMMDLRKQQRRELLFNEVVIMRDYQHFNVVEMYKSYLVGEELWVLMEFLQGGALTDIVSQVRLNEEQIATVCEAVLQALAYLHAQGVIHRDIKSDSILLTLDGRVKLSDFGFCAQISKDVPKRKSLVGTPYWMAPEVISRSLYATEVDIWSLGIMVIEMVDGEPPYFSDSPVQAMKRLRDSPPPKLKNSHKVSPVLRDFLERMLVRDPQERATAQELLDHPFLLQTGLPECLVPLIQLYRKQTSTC

pKd: −log10 of the molar value.

Sequence of MBP-LRRK2-Roc-COR (wild type) (human) (Q5S007 whole entry): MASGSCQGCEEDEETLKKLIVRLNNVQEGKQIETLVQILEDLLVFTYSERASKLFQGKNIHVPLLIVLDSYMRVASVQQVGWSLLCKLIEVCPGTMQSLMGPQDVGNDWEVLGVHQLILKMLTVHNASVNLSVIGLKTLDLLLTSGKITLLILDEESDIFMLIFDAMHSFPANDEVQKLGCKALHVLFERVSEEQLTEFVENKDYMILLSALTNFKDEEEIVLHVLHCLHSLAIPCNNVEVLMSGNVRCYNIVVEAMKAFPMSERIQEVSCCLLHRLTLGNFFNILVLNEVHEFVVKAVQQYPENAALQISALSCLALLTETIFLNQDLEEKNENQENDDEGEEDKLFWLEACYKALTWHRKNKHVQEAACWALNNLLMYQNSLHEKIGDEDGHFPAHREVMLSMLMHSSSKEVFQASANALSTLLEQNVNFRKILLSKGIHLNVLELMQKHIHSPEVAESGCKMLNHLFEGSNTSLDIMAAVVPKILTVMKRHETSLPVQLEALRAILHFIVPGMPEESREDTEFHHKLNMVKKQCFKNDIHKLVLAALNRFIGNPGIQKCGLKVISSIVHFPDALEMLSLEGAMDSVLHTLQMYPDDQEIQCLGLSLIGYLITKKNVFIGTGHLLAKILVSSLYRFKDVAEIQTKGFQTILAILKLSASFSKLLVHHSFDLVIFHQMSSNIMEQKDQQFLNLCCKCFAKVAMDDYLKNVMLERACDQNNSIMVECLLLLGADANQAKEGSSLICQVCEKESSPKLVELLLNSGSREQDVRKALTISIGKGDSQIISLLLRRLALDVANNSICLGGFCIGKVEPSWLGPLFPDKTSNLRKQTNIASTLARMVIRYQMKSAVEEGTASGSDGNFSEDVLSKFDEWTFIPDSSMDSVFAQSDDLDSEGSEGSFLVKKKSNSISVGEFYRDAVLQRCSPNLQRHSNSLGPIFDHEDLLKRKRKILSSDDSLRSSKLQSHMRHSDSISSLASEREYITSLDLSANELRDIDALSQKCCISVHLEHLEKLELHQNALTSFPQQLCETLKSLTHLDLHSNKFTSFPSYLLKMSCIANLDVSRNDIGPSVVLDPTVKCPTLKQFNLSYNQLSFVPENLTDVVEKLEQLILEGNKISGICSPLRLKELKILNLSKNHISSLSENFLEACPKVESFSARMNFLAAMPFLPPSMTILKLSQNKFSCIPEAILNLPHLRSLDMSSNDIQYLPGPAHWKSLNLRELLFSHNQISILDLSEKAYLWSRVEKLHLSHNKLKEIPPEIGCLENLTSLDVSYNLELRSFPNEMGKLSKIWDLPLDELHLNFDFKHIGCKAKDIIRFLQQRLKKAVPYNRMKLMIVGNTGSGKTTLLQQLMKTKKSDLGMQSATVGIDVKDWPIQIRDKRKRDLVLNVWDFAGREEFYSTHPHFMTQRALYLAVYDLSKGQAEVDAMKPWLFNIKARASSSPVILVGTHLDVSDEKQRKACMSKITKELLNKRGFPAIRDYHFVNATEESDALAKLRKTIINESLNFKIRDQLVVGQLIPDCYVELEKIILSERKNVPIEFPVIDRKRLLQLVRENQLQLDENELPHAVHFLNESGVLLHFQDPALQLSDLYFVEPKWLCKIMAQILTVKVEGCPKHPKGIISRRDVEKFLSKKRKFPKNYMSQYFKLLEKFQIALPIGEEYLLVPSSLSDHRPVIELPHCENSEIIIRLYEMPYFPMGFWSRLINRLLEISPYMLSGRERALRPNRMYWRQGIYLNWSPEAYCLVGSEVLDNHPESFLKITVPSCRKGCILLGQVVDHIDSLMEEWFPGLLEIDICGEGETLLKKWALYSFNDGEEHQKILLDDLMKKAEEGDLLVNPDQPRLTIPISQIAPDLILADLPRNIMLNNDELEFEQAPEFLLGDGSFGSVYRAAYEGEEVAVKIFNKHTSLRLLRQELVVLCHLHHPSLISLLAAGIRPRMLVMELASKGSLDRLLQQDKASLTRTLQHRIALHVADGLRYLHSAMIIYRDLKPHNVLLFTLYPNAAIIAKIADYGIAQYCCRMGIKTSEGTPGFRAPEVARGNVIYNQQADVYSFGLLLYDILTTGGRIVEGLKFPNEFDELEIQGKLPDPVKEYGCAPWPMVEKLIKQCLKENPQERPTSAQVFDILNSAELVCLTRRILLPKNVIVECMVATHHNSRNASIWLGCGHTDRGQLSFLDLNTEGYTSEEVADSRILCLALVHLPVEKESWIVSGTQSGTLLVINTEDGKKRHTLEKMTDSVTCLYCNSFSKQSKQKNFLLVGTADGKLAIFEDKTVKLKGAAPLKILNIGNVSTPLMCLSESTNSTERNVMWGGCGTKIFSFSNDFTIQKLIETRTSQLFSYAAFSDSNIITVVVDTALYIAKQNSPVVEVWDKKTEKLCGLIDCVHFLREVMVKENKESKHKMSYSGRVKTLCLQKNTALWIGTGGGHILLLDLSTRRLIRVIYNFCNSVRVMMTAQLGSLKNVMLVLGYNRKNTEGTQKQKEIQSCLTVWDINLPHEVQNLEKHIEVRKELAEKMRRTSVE
Sequence of LRRK2 Roc-COR (Q5S007 1328-1840): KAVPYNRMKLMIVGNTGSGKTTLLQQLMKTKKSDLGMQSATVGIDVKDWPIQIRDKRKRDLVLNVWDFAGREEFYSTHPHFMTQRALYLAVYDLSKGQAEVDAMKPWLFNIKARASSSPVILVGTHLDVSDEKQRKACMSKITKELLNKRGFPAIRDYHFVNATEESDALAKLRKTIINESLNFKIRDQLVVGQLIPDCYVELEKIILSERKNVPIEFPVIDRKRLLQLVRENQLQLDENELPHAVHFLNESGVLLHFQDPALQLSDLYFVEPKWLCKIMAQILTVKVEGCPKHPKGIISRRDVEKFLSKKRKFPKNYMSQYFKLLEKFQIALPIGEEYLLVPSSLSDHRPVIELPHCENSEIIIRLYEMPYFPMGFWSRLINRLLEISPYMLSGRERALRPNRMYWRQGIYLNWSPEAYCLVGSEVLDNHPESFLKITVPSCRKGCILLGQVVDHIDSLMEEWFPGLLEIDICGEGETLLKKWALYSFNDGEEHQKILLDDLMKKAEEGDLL
Sequence of GST-CRIB(PAK6) (Q9NQU5 11-45): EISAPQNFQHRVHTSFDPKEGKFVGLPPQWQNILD
Sequence of PAK6 (Homo sapiens) (Q9NQU5 whole entry): as the sequence (Q9NQU5 whole entry) above
Sequence of GST-CRIB(PAK5) (Q9P286 10-44): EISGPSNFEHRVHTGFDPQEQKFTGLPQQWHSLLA

“GST-CRIB(PAK5) (from UniProt Q9P286 10-44) (domain or fragment)” had a pKd in test [1] of 3.95.

Consider “GST-CRIB(PAK6) (from UniProt Q9NQU5 11-45) (domain or fragment)”, for which, in test [1], the pKd is 4.92.

As for LRRK2 Roc-COR (from UniProt Q5S007), in test [2], the pKd is 5.00.

“MBP-LRRK2-Roc-COR R1441C (from UniProt Q5S007 1-2527) (domain or fragment)”: the pKd in test [3] is 4.29.

With “MBP-LRRK2-Roc-COR Y1699C (from UniProt Q5S007 1-2527) (domain or fragment)”, the pKd in test [3] was 4.42.

The pKd is −log10 of the Kd, conventionally taken in molar units.

The values are drawn from PMC11487180.
